Patent publication US20240174763A1 (NOVOPROTEIN SCIENTIFIC, published 2024)
Changes are numbered by the printed parent chain.

Assays:
[1] = target: T1, human CD73 on SK-OV-3 cells (human ovarian adenocarcinoma cells) (human, UniProt P21589 27-549); experiment: cell-based or functional assay
T1 sequence (looked up): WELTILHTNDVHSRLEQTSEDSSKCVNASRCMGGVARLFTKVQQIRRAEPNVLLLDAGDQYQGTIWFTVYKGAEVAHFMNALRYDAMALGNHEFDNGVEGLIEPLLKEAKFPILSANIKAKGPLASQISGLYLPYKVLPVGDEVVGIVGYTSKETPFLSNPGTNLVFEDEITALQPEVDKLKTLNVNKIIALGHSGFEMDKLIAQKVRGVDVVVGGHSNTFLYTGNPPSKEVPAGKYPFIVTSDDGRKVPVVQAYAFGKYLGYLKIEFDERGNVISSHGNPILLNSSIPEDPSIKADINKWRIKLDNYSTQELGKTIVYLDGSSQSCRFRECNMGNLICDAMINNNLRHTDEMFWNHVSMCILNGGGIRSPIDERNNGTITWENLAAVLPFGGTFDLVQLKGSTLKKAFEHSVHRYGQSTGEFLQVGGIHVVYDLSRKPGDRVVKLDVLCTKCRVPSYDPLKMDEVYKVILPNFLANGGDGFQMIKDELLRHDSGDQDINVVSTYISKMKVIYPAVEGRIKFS

[2] = target: T2, monkey CD73 on CHOK1-cynoCD73 cells (monkey, UniProt A0A2K5V5U7 27-549, GPI anchor at the C-terminus of the mature chain (paragraph 3 says CD73 is GPI-anchored). The propeptide 550-574 is removed.); experiment: cell-based or functional assay
T2 sequence: T1 sequence (looked up) with M199T, T350A, V466I

[3] = target: T1, human CD73 on SK-OV-3 cells (human …); experiment: flow cytometry on SK-OV-3 cells
Experimental: 4×10⁵ cells SK-OV-3 were taken, triple gradient (0.009-20 μg/ml) dilution of CQ137 protein was added, incubated for 1 h, washed three times with PBS, Anti-hFC-APC (purchased from Jackson immunology) was added, and detected by flow cytometry.

[4] = target: T2, monkey CD73 on CHOK1-cynoCD73 cells; experiment: flow cytometry on CHOK1-cynoCD73 cells
Experimental: The full length of monkey CD73 was constructed on a eukaryotic expression vector containing NEO resistance, CHO-K1 cells were transfected, G418 was used for screening to obtain a CHOK1-cynoCD73 cell strain. 4×10⁵ CHOK1-cynoCD73 cells were taken and a gradient diluted CQ137 protein was added, after incubation was performed for 1 h, the cells were washed with PBS for three times, […] (purchased from Jackson Immunology) was added, and detected by flow cytometry.

[5] = target: T3, recombinant monkey CD73 protein (monkey, UniProt A0A2K5V5U7 27-549); experiment: ELISA, plate coated with recombinant monkey CD73 at 3 µg/mL
T3 construct: Monkey species not further named for the recombinant protein (the cell line is called cynoCD73)
T3 sequence: T1 sequence (looked up) with M199T, T350A, V466I
Experimental: (§1) The recombinant monkey CD73 protein was packaged in plates according to a 3 μg/mL and a gradient diluted CQ137 was added.

[6] = target: T3, recombinant monkey CD73 protein; experiment: ELISA, recombinant monkey CD73 coated at 3 ug/mL
Experimental: as §1

[7] = target: T4, recombinant human CD73 protein (human, UniProt P21589 27-547, limits assumed); experiment: Biacore (SPR), CQ137 immobilised, CD73 protein 2.5 nM-40 nM
T4 construct: Bought recombinant protein; the assays only say recombinant human CD73; also called rhCD73; recombinant hCD73 protein
T4 sequence (looked up): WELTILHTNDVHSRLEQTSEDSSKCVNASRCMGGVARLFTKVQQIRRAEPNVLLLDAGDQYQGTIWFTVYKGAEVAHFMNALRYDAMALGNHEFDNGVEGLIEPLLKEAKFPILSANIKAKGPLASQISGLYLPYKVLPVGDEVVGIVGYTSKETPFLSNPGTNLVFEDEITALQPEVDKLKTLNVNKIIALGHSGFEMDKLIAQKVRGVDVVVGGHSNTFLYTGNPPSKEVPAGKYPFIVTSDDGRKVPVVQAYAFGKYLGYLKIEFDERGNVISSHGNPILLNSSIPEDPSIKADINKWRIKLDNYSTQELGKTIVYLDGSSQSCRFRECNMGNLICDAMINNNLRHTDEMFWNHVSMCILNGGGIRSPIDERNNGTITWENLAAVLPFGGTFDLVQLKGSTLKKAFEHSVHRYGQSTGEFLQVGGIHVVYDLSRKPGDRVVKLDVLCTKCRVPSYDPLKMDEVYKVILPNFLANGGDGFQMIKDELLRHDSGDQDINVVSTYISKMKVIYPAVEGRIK
Experimental: The affinity of CQ137 to recombinant hCD73 protein was determined by Biacore, CQ137 was cured.

B1: CQ137 antibody protein (human mouse chimeric anti-CD73 full-length antibody) (antibody, human IgG1, kappa, V domains shown)
VH: EVQLQQSGPELVKPGASVKISCKASGYSFTGYYIHWVKQSHVKSLEWIGRINPYNGATTYNQNFKDKASLTVDKSSSTAYMELHSLTSEDSAVYYCARFHYGAPDYWGQGTTLTVSS
VL: DILMTQSPSSMYASLGERVTITCKASQDINTYLTWFQQKPGKSPKTLIYRANILVDGVPSRFSGSGSGQDYSLTISSLEFEDMGIYYCLQYDEFPLTFGAGTKLELKR
IC50 of inhibition of CD73 enzyme activity on SK-OV-3 cells [1]: 371 ng/mL | IC50 of inhibition of CD73 enzyme activity on CHOK1-cynoCD73 cells [2]: 990 ng/mL | EC50 [3]: 0.588 ng/mL | EC50 [4]: 0.0999 ng/mL | EC50 [5]: 217 ng/mL | EC50 (read off the curve) [6]: ~200 ng/mL | Kd [7]: 0.0865 nM | koff [7]: 6.04e-05 s⁻¹ | kon [7]: 698000 M⁻¹ s⁻¹
